Laboratory results: the supplement of paper PMC9233669
Variants at the floor of the assay were thinned out.

Columns and labels:
[1] = system: biotinyl-Trp-oxazolone; test: self-aminoacylation, catalytic enhancement (BWO) (fold over background); higher = more active; k-Seq, kA / k0A0; sequences stand for … in GGGAAUGGAUCCACAUCUACGAAUUC…UUCACUGCAGACUUGACGAAGCUG
Procedure, shortened: (§1)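 Mutagenized RNA pools (0.43 μM; 21-nt variable region) were treated with 2–1250 μM of each biotinyl-aminoacyl-oxazolone. Conditions were 50 μL HEPES/NaCl/KCl/MgCl2/CaCl2 buffer, 5% acetonitrile, pH 6.9–7.0, room temperature, 90 minutes. Catalytic enhancement, the median kA relative to the uncatalyzed rate, was derived from streptavidin capture, qPCR and Illumina sequencing.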

[2] = system: biotinyl-Leu-oxazolone; test: self-aminoacylation, catalytic enhancement (BLO) (fold over background); higher = more active; k-Seq, kA / k0A0; sequences stand for … in GGGAAUGGAUCCACAUCUACGAAUUC…UUCACUGCAGACUUGACGAAGCUG
Procedure, shortened: as §1

[3] = system: biotinyl-Met-oxazolone; test: self-aminoacylation, catalytic enhancement (BMO) (fold over background); higher = more active; k-Seq, kA / k0A0; sequences stand for … in GGGAAUGGAUCCACAUCUACGAAUUC…UUCACUGCAGACUUGACGAAGCUG
Procedure, shortened: as §1

[4] = system: biotinyl-Phe-oxazolone; test: self-aminoacylation, catalytic enhancement (BFO) (fold over background); higher = more active; k-Seq, kA / k0A0; sequences stand for … in GGGAAUGGAUCCACAUCUACGAAUUC…UUCACUGCAGACUUGACGAAGCUG
Procedure, shortened: as §1

[5] = system: biotinyl-Val-oxazolone; test: self-aminoacylation, catalytic enhancement (BVO) (fold over background); higher = more active; k-Seq, kA / k0A0; sequences stand for … in GGGAAUGGAUCCACAUCUACGAAUUC…UUCACUGCAGACUUGACGAAGCUG
Procedure, shortened: as §1

Row | Sequence | self-aminoacylation [1] | self-aminoacylation [2] | self-aminoacylation [3] | self-aminoacylation [4] | self-aminoacylation [5]
1 | AAGCUUGGUAAUAGUCGCAAG [Fam3.1 aminoacylation ribozyme variant] | 2.68 | 2.52 | 2.46 | 2.69 | 
2 | AAGCUUGCUAAUAGCCGCAAG [Fam3.1 aminoacylation ribozyme variant] | 3.08 | 2.58 | 2.25 | 3.2 | 
3 | AUUACCCUGGUCCUCGAGUGG [Fam2.1 aminoacylation ribozyme variant] |  |  | 2.1 | 2.88 | 
4 | AUUCACCUAGGACAUCGGGGG [Fam2.2 aminoacylation ribozyme variant] |  | 2.63 | 3.13 | 10.4 | 2.18
5 | AUAACCCUGGUCAUCGUGUGA [Fam2.1 aminoacylation ribozyme variant] | 3.32 | 3.53 | 3.15 | 15.2 | 
6 | AAGUUUGCCAAUAGUCGCACG [Fam3.1 aminoacylation ribozyme variant] |  | 2.05 | 2.3 |  | 
7 | AUUCACCUAGAUAAUCGGGUG [Fam2.2 aminoacylation ribozyme variant] |  | 2.79 | 2.25 | 12.9 | 
8 | AUUCACCUAAUUCAUCGGGUG [Fam2.2 aminoacylation ribozyme variant] | 3.32 | 3.05 | 2.68 | 15.5 | 
9 | CUACUUCAAACAAUCGAUGUG [Fam1A.1 aminoacylation ribozyme variant] |  |  | 2.24 | 3.31 | 
10 | UUUACCCUGGUCAUCGAGGGA [Fam2.1 aminoacylation ribozyme variant] | 2.85 |  |  | 3.55 | 2.19
11 | CCACACUUGAAGCAAUCGGCC [Fam1B.1 aminoacylation ribozyme variant] | 2.29 | 2.24 |  |  | 3.19
12 | CCCCACUCCAAGCAAUCGGUC [Fam1B.1 aminoacylation ribozyme variant] | 6.53 |  |  | 8.62 | 2.19
13 | AAGAAUGCUAAUAGUCGCAAG [Fam3.1 aminoacylation ribozyme variant] | 3.69 |  | 2.19 | 12.5 | 
14 | AUUCACCGAGGUCAUCGGUUG [Fam2.2 aminoacylation ribozyme variant] | 2.6 | 4.89 | 3.52 | 29 | 
15 | CCACACUUCAAGCAAUGGGCC [Fam1B.1 aminoacylation ribozyme variant] |  |  |  |  | 2.81
16 | AUUACCCAGGUCAUCGUGUGA [Fam2.1 aminoacylation ribozyme variant] | 4.27 | 3.86 | 3.58 | 21.4 | 
17 | AUUACCCUGGUCUGCGAGUGA [Fam2.1 aminoacylation ribozyme variant] | 2.62 | 2.72 | 2.15 | 9.18 | 
18 | AAGAUUGUUAAUAGUCGCAAG [Fam3.1 aminoacylation ribozyme variant] | 2.65 |  | 2.14 | 2.81 | 
19 | CUUACCCUGGUCAUCGAGUGC [Fam2.1 aminoacylation ribozyme variant] | 3.03 | 3.18 | 2.91 | 4.77 | 
20 | AACUCUGCUAAUAGUCGCAAG [Fam3.1 aminoacylation ribozyme variant] | 5.56 |  | 2.46 | 16.4 | 
21 | CCGCUUCAAACAAUCGGUCUG [Fam1A.1 aminoacylation ribozyme variant] | 95.9 | 4.82 | 2.68 | 257 | 2.4
22 | AAUACCCUGGUCCUCGAGUGA [Fam2.1 aminoacylation ribozyme variant] | 3.22 | 3.33 | 3.08 | 9.54 | 
23 | AUUACCCUCGUCAUGGAGUGA [Fam2.1 aminoacylation ribozyme variant] | 2.5 | 3.02 | 2.81 | 8.82 | 
24 | AUUAGCCUGGUCAUCGAGUGG [Fam2.1 aminoacylation ribozyme variant] | 3.05 | 2.35 | 2.81 | 2.98 | 
25 | AUUCUCCUAGGUCAUAGGGUG [Fam2.2 aminoacylation ribozyme variant] |  | 2.94 | 2.33 | 8.67 | 
26 | AUUCACCUCGGUCAUCGAGUG [Fam2.2 aminoacylation ribozyme variant] | 2.51 | 2.88 | 2.33 | 13.1 | 
27 | CUUACCCUGGUCAUCGAGGGA [Fam2.1 aminoacylation ribozyme variant] |  |  |  |  | 2.04

Row | Sequence | self-aminoacylation [1] | self-aminoacylation [2] | self-aminoacylation [3] | self-aminoacylation [4] | self-aminoacylation [5]
28 | AUUCACCUAGGUAACCGGGUG [Fam2.2 aminoacylation ribozyme variant] | 2.56 | 2.85 | 2.57 | 11 | 
29 | AAUACCCUGGUCAUCGAGUGG [Fam2.1 aminoacylation ribozyme variant] | 3.39 | 2.81 | 2.49 | 7.18 | 
30 | AAGUUCGCUAAUAGUCGCAAU [Fam3.1 aminoacylation ribozyme variant] | 2.44 |  | 2.1 | 3.19 | 2.03
31 | AAUACCCUGUUCAUCGAGUGA [Fam2.1 aminoacylation ribozyme variant] | 4.5 | 3.46 | 3 | 9.83 | 2.14
32 | CCACACUCCAAGCAUUCGGUC [Fam1B.1 aminoacylation ribozyme variant] |  |  |  |  | 2.83
33 | AUUACCCUGGUCAUCGAGGGG [Fam2.1 aminoacylation ribozyme variant] | 2.23 | 2.42 | 2.75 | 2.86 | 
34 | AUUACCCUGGGCUUCGAGUGA [Fam2.1 aminoacylation ribozyme variant] | 2.03 |  | 2.01 |  | 
35 | AUUACUCUGGUCAUCAAGUGA [Fam2.1 aminoacylation ribozyme variant] | 3.07 | 2.29 | 2.47 | 4.38 | 
36 | CCCCACUUCAAGCAGUCGGUC [Fam1B.1 aminoacylation ribozyme variant] | 3.29 | 2.2 |  | 3.77 | 2.23
37 | CCACACUGCAAGCAAUCGGGC [Fam1B.1 aminoacylation ribozyme variant] | 3 |  |  |  | 2.56
38 | AUUAACCUGGCCAUCGAGUGA [Fam2.1 aminoacylation ribozyme variant] | 2.78 | 2.11 | 2.01 |  | 
39 | CCACACUUCAAGCCAUCGGUU [Fam1B.1 aminoacylation ribozyme variant] | 2.06 |  |  | 2.81 | 2.18
40 | CUUACCCUGCUCAUCGAGUGA [Fam2.1 aminoacylation ribozyme variant] | 2.2 | 2.19 | 2.57 | 2.86 | 
41 | AUACACCUAGGUCAUCGAGUG [Fam2.2 aminoacylation ribozyme variant] | 2.4 | 2.87 | 2.4 | 2.81 | 
42 | ACUACCCUCGUCAUCGAGUGA [Fam2.1 aminoacylation ribozyme variant] | 2.14 | 3.13 | 2.71 | 4.34 | 2.32
43 | AAGACUGCUAAUAGUCGCAAG [Fam3.1 aminoacylation ribozyme variant] | 4.56 |  | 2.04 | 18.5 | 
44 | AUUACACUGGUCAUCAAGUGA [Fam2.1 aminoacylation ribozyme variant] | 3.18 | 2.31 | 2.7 | 3.52 | 
45 | AUUACCCUGUUCAUCGAGUGU [Fam2.1 aminoacylation ribozyme variant] | 3.95 | 2.1 | 2.84 |  | 2.02
46 | AAGUUUGCUAAUAGUCGCGUG [Fam3.1 aminoacylation ribozyme variant] | 2.15 | 2.15 | 2.33 | 8.13 | 
47 | CCACACGUCAAGCAAUCCGUC [Fam1B.1 aminoacylation ribozyme variant] | 2.45 |  |  |  | 2.22
48 | AUUACCCUGGUCGUCCAGUGA [Fam2.1 aminoacylation ribozyme variant] | 3.21 | 2.88 | 2.68 | 11.1 | 
49 | AGUCACCUAGGUCAUCAGGUG [Fam2.2 aminoacylation ribozyme variant] |  | 2.1 |  | 8.84 | 2.09
50 | CCGCACCUCAAGCAAUCGGUC [Fam1B.1 aminoacylation ribozyme variant] | 5.62 |  |  | 6.19 | 2.16
51 | CCACAACUCAAGCAAUCGGUC [Fam1B.1 aminoacylation ribozyme variant] |  |  |  | 2.62 | 2.23
52 | AUUCACCCAGGUCAUCGGGUU [Fam2.2 aminoacylation ribozyme variant] |  | 2.65 | 2.16 | 6.46 | 2.14
53 | AUUCACCUAGGUCAUCGCGUC [Fam2.2 aminoacylation ribozyme variant] | 2.85 |  | 2.3 | 9.82 | 2.15
